Measurements as given in the supplement of paper PMC6757056.
± gives the standard deviation of the averaged measurements.

B1: library; a variant is named by its letters at N, in order (parent)
chain: GCUGUCACCGGUGUAUUACCCUAGUGGUCGACCGGUCUGAUGAGUCUNNNNNNAGACGAAACAGC

Tests used:
hypoxanthine [1] = variants of: B1; assay: normalized RNA/DNA level with ligand (relative to sTRSVctl = 100) (log10 (% of sTRSVctl)); ligand: hypoxanthine (xanthine aptamer); higher = less ribozyme self-cleavage, higher mRNA level; settings: ligand concentration (+) RNA-Seq: 5 mM, HEK293T, reporter: mCherry (pCS4076), ligand present: yes
How it was run: (§1)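 Library plasmids encoding reporter-linked ribozyme switches (mCherry, or eGFP for some folinic acid experiments) were transfected into HEK293T at 4 µg per 6-well well. Ligand, when used, was added 1 h before transfection. Total RNA was extracted with EDTA 72 h later, then reverse-transcribed, amplified, barcoded and sequenced. RNA level was RNA reads over DNA reads, divided by a spiked-in non-cleaving control (or the top 25 sequences), ×100, log10; only sequences with ≥100 DNA reads were kept.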

hypoxanthine [2] = variants of: B1; assay: normalized RNA/DNA level without ligand (relative to sTRSVctl = 100) (log10 (% of sTRSVctl)); ligand: hypoxanthine (xanthine aptamer); higher = less ribozyme self-cleavage, higher mRNA level; settings: HEK293T, reporter: mCherry (pCS4076), ligand present: no
How it was run: as §1

| Variant | normalized RNA/DNA level with ligand (log10) (hypoxanthine [1]) | normalized RNA/DNA level without ligand (log10) (hypoxanthine [2]) |
| --- | --- | --- |
| AGCCAC | 1.931 ± 0.014 | 1.8318 ± 6.2e-05 |
| CGCGGA | 2 ± 0.046 | 1.863 ± 0.0046 |
| CGCGGC | 1.99 ± 0.042 | 1.92 ± 0.034 |
| CGCGGU | 1.96 ± 0.025 | 1.87 ± 0.026 |
| UGCAGC | 1.98 ± 0.074 | 1.83 ± 0.055 |
| AGCAUC | 2.07 ± 0.038 | 1.96 ± 0.025 |
| UGCACU | 1.94 ± 0.088 | 1.9 ± 0.0073 |
| UGCACA | 1.934 ± 0.019 | 1.843 ± 0.0094 |
| UGCACG | 1.923 ± 0.014 | 1.76 ± 0.038 |
| UGCACC | 1.92 ± 0.057 | 1.93 ± 0.024 |
| GGCACG | 1.92 ± 0.022 | 1.66 ± 0.029 |
| GGCACC | 1.92 ± 0.06 | 1.85 ± 0.021 |
| GGCACA | 1.885 ± 0.002 | 1.86 ± 0.03 |
| GGCACU | 2.011 ± 0.0022 | 1.99 ± 0.025 |
| GGAGCC | 1.92 ± 0.062 | 1.854 ± 0.0083 |
| GGAUAU | 1.9 ± 0.023 | 1.78 ± 0.028 |
| AGAGAC | 1.88 ± 0.028 | 1.772 ± 0.017 |
| UGCGCC | 1.989 ± 0.0081 | 1.93 ± 0.065 |
| UGCGCU | 1.966 ± 0.0057 | 1.93 ± 0.023 |
| UGCGCA | 1.94 ± 0.034 | 1.82 ± 0.052 |
| AGAUGC | 1.96 ± 0.07 | 1.72 ± 0.072 |
| UGCCAA | 1.906 ± 0.018 | 1.84 ± 0.021 |
| UGCCAU | 1.909 ± 0.0083 | 1.817 ± 0.015 |

| Variant | normalized RNA/DNA level with ligand (log10) (hypoxanthine [1]) | normalized RNA/DNA level without ligand (log10) (hypoxanthine [2]) |
| --- | --- | --- |
| AGCGUU | 1.93 ± 0.028 | 1.805 ± 0.011 |
| AGCGUA | 1.94 ± 0.027 | 1.77 ± 0.034 |
| AGCACU | 1.96 ± 0.039 | 1.8853 ± 0.00075 |
| CGAGAC | 1.93 ± 0.036 | 1.72 ± 0.025 |
| CGAGAU | 1.94 ± 0.036 | 1.71 ± 0.018 |
| UGCCCG | 1.9 ± 0.037 | 1.831 ± 0.014 |
| UGCCCC | 2.011 ± 0.0086 | 1.9 ± 0.024 |
| UGCCCU | 2.003 ± 0.013 | 1.94 ± 0.028 |
| UGAUUG | 1.97 ± 0.043 | 1.763 ± 0.0098 |
| UGAUUA | 1.91 ± 0.087 | 1.88 ± 0.049 |
| CGAUAU | 1.911 ± 0.0083 | 1.74 ± 0.024 |
| CGAGCC | 1.94 ± 0.11 | 1.852 ± 0.0083 |
| CGAGCU | 1.968 ± 0.0032 | 1.86 ± 0.052 |
| CGAGCG | 1.94 ± 0.057 | 1.8 ± 0.02 |
| AGACGC | 1.923 ± 0.0088 | 1.69 ± 0.044 |
| GGCCGA | 1.98 ± 0.038 | 1.854 ± 0.014 |
| GGCCGC | 1.879 ± 0.014 | 1.7 ± 0.06 |
| GGCCGG | 1.95 ± 0.039 | 1.84 ± 0.026 |
| CGCACG | 1.95 ± 0.089 | 1.87 ± 0.044 |
| CGCACU | 2 ± 0.11 | 1.89 ± 0.066 |
| CGCACA | 1.92 ± 0.024 | 1.738 ± 0.016 |
| CGCACC | 1.93 ± 0.093 | 1.9 ± 0.028 |
| UGACGC | 1.96 ± 0.045 | 1.83 ± 0.038 |

| Variant | normalized RNA/DNA level with ligand (log10) (hypoxanthine [1]) | normalized RNA/DNA level without ligand (log10) (hypoxanthine [2]) |
| --- | --- | --- |
| GGCCUC | 1.99 ± 0.13 | 1.96 ± 0.084 |
| GGCCUU | 1.975 ± 0.013 | 1.968 ± 0.011 |
| GGCCUA | 1.98 ± 0.063 | 1.98 ± 0.026 |
| CGCGCU | 1.92 ± 0.076 | 1.93 ± 0.062 |
| CGCGCA | 1.97 ± 0.063 | 1.81 ± 0.036 |
| CGCGCG | 1.9548 ± 0.00063 | 1.78 ± 0.035 |
| AGCGCA | 1.94 ± 0.019 | 1.758 ± 0.0078 |
| AGCGCC | 1.93 ± 0.034 | 1.86 ± 0.04 |
| GGCCCG | 1.974 ± 0.011 | 1.88 ± 0.03 |
| GGCCCA | 1.95 ± 0.026 | 1.97 ± 0.024 |
| GGCCCU | 2.037 ± 0.02 | 2 ± 0.034 |
| GGCCCC | 1.95 ± 0.12 | 1.97 ± 0.021 |
| UGAGAC | 1.89 ± 0.024 | 1.83 ± 0.057 |
| CGAUUG | 1.92 ± 0.045 | 1.922 ± 0.0055 |
| AGAGUC | 1.937 ± 0.017 | 1.8831 ± 0.0015 |
| AGAGUU | 1.905 ± 0.0059 | 1.8267 ± 0.0011 |
| AGAGUG | 1.82 ± 0.047 | 1.331 ± 0.0048 |
| GGACGC | 1.86 ± 0.044 | 1.49 ± 0.12 |
| GGACGU | 1.887 ± 0.013 | 1.814 ± 0.0056 |
| UGAUCC | 1.91 ± 0.087 | 1.921 ± 0.012 |
| UGAUCA | 1.98 ± 0.031 | 1.899 ± 0.0037 |
| UGAUCU | 2.022 ± 0.0077 | 1.939 ± 0.013 |
| CGCGAC | 1.97 ± 0.067 | 1.75 ± 0.059 |

| Variant | normalized RNA/DNA level with ligand (log10) (hypoxanthine [1]) | normalized RNA/DNA level without ligand (log10) (hypoxanthine [2]) |
| --- | --- | --- |
| CGCGAG | 1.84 ± 0.06 | 1.67 ± 0.011 |
| CGCGAU | 1.904 ± 0.0019 | 1.79 ± 0.036 |
| CGCGAA | 1.87 ± 0.029 | 1.7 ± 0.028 |
| CGCAGC | 1.96 ± 0.041 | 1.87 ± 0.025 |
| CGCAGG | 1.82 ± 0.096 | 1.348 ± 0.011 |
| CGCAGA | 1.9 ± 0.029 | 1.81 ± 0.082 |
| CGCAGU | 1.938 ± 0.0028 | 1.86 ± 0.026 |
| AGAUAU | 1.88 ± 0.032 | 1.798 ± 0.015 |
| AGAUAG | 1.82 ± 0.025 | 1.441 ± 0.0087 |
| CGCCGC | 1.97 ± 0.063 | 1.923 ± 0.0072 |
| CGCCGG | 1.913 ± 0.0023 | 1.61 ± 0.065 |
| CGCCGA | 2.04 ± 0.052 | 1.89 ± 0.042 |
| CGCCGU | 1.986 ± 0.014 | 2 ± 0.043 |
| UGCAAC | 1.963 ± 0.0065 | 1.83 ± 0.022 |
| UGCAAU | 1.9506 ± 0.00045 | 1.807 ± 0.01 |
| AGCCCU | 1.94 ± 0.03 | 1.932 ± 0.013 |
| AGCCCC | 1.963 ± 0.015 | 1.91 ± 0.089 |
| UGCGUG | 1.88 ± 0.027 | 1.68 ± 0.084 |
| UGCGUC | 1.989 ± 0.0044 | 2.031 ± 0.0052 |
| UGCGUU | 1.986 ± 0.0098 | 1.921 ± 0.0049 |
| AGCGAU | 1.9 ± 0.037 | 1.73 ± 0.076 |
| CGCCUG | 2 ± 0.053 | 1.9 ± 0.04 |
| CGCCUU | 1.94 ± 0.033 | 1.92 ± 0.068 |

| Variant | normalized RNA/DNA level with ligand (log10) (hypoxanthine [1]) | normalized RNA/DNA level without ligand (log10) (hypoxanthine [2]) |
| --- | --- | --- |
| CGCCUA | 1.98 ± 0.092 | 1.848 ± 0.014 |
| GGACUC | 1.9331 ± 0.00093 | 1.92 ± 0.085 |
| GGACUA | 1.91 ± 0.09 | 1.84 ± 0.023 |
| GGACUU | 1.94 ± 0.04 | 1.89 ± 0.04 |
| CGACUC | 2.06 ± 0.027 | 2.006 ± 0.0054 |
| CGACUU | 1.9958 ± 0.0011 | 1.896 ± 0.012 |
| CGACUA | 1.95 ± 0.079 | 1.698 ± 0.0058 |
| CGACUG | 1.94 ± 0.023 | 1.828 ± 0.012 |
| AGAGCU | 1.93 ± 0.029 | 1.83 ± 0.046 |
| AGAGCA | 1.94 ± 0.065 | 1.75 ± 0.027 |
| AGAGCC | 1.955 ± 0.018 | 1.823 ± 0.017 |
| CGACGU | 1.956 ± 0.0063 | 1.86 ± 0.075 |
| CGACGA | 1.93 ± 0.064 | 1.803 ± 0.0041 |
| GGAGAU | 1.93 ± 0.038 | 1.72 ± 0.024 |
| UGAGGC | 1.94 ± 0.03 | 1.9 ± 0.079 |
| UGAGGU | 1.94 ± 0.035 | 1.665 ± 0.015 |
| UGAGGG | 1.87 ± 0.036 | 1.514 ± 0.0058 |
| UGCAUG | 1.9 ± 0.028 | 1.75 ± 0.024 |
| UGCAUU | 1.981 ± 0.01 | 1.88 ± 0.018 |
| UGCAUC | 2.02 ± 0.031 | 2.04 ± 0.052 |
| UGCAUA | 1.964 ± 0.0062 | 1.83 ± 0.022 |
| CGAUCU | 1.95 ± 0.046 | 1.877 ± 0.0033 |
| CGAUCG | 1.94 ± 0.027 | 1.84 ± 0.038 |
